# According to patent US7745147 (VIRANATIVE, dated 2010):
# Assays:
# [1] = target: concentrated crude leukocyte interferon alpha; test: pilot-scale immunoaffinity chromatography, crude interferon batch K-543, experiment P-429
# [2] = target: T1, human interferon alpha 14 (human, UniProt P01570 24-189); test: immunoaffinity column loaded with crude leukocyte interferon alpha; RP-HPLC of eluate
# T1 construct: One entry serves both the natural leukocyte protein and the bought recombinant protein; also called α14; IFN-α14
# Experimental: The antibodies were all bound to CNBr-activated Sepharose gel. […] Impurities and unbound material were removed from the column by washing with buffer. Interferon alpha was eluted with citric-acid buffer, pH2. Unbound, flow-through fractions, and eluate fractions were analysed for interferon alpha using a specific ELISA. The eluate fraction was analysed for its complement of interferon alpha proteins using reversed-phase HPLC (RP-HPLC). Interferon alpha specific activity was determined using a cytopathic protective effect assay with MDBK cells. All samples were analysed twice. The experiments were repeated with a second batch of concentrated crude leukocyte interferon alpha.
# Rather, the interferon alpha protein pattern is compared to assess whether all the expected peaks are present.
# [3] = target: concentrated crude leukocyte interferon alpha; test: immunoaffinity chromatography, antibody on CNBr-Sepharose; interferon alpha ELISA of fractions
# [4] = target: concentrated crude leukocyte interferon alpha; test: pilot-scale immunoaffinity chromatography, crude interferon from lab fermenter, experiment P-434
# human interferon alpha 5 = target: T2, human interferon alpha 5 (human, UniProt P01569 24-189, limits assumed); test: 3-A3-2 immunoaffinity column, 10,000 IU load; Daudi cell anti-proliferative assay of fractions
# T2 construct: also called α5; IFN-α5
# [5] = target: T3, human interferon alpha 16 (human, UniProt P05015 24-189); test: as above
# T3 construct: also called α16; IFN-α16
# [6] = target: concentrated crude leukocyte interferon alpha; test: immunoaffinity chromatography, antibody on CNBr-Sepharose; interferon alpha ELISA of fractions; second row for this antibody
# [7] = target: concentrated crude leukocyte interferon alpha; test: capacity of immunoaffinity gel, 7 mg antibody/mL CNBr-activated Sepharose FF
# human interferon alpha 1 = target: T4, human interferon alpha 1 (human, UniProt P0DY56 24-189); test: immunoaffinity chromatography (Examples 1, 3, 4 and 5)
# T4 construct: also called α1; IFN-α1
# [8] = target: concentrated crude leukocyte interferon alpha; test: immunoaffinity chromatography of crude leukocyte interferon alpha (Example 1)
binder,measurement,setting,value
"Monoclonal antibody 3-A3-2 (antibody, mouse IgG1, V domains shown, Murine IgG1/kappa from hybridoma 3-A3-2 (ECACC 05030201); also called monoclonal 3-A3-2; 3A32 Ab) VH: QVQLQESGTVLARPGASVKMSCKASGYSFTTYWMHWVKQRPGQGLEWIGVIYPGNGDTTYNQKFKDKAKLTAVTSANTAYMELSSLTNEDSAVYFCTRNYKYDYYTMDYWGQGTTVTVSS VL: DIVLTQSPASLAVSLGQRATISCRASKSVSTSGHSYMHWYQQKPGQTPKLLIYLASNLESGVPARFSGSGSGTDFTLNIHPVEEEDAATYYCQHSGELPFTFGSGTKLEIK",IFN-α eluate yield (%),[1],73%
same,binding result,[2],binds
same,Flow-through (%),[3],1%
same,eluate (IU),[3],16.5 IU
same,recovery (%),[3],66%
same,IFN-α eluate yield (%),[4],70%
same,binding result,human interferon alpha 5,binds
same,binding result,[5],binds
same,Flow-through (%),[6],5%
same,eluate (IU),[6],17 IU
same,recovery (%),[6],61%
same,interferon capacity,[7],22.5 MIU/ml gel
same,binding result,human interferon alpha 1,binds
same,Flow-through (%),[8],< 5%
